Assay results reported in US20140199692A1.

Molecular target: eukaryotic translation initiation factor eIF4E (endogenous, in lysates of human cell lines) (UniProt P06730)
Experiment: immunoprecipitation of eIF4E from nuclear lysates

Sequence of eukaryotic translation initiation factor eIF4E (endogenous, in lysates of human cell lines) (P06730 2-217 limits assumed): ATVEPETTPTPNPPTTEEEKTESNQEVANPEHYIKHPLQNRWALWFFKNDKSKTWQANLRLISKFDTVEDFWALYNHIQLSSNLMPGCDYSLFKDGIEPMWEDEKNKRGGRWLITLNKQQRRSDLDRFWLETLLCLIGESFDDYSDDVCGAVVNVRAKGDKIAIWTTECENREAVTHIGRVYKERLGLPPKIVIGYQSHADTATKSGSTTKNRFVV

- efficiency of IP: < 80%
Substance: mouse monoclonal anti-eIF4E Ab (BD Transduction Laboratories) (antibody)
